# In the supplement of paper PMC12764529:
# ± gives the half width of the 95% confidence interval.
# What was measured:
# [1] = folding stability dG unfold (combined trypsin and chymotrypsin); higher = more stable
# Method in brief: (§1)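 Designed mini-proteins (under 80 residues, no cysteine) in a PA-tagged cDNA display construct were digested with trypsin and chymotrypsin. Each protease was used at 11 concentrations (threefold dilutions) plus a no-protease condition, followed by sequencing. K50 was inferred by Bayesian fitting of sequencing counts, and unfolding free energy was derived against a sequence-predicted unfolded-state K50 and a shared folded-state K50, per protease or combined. Only designs with AlphaFold2 dimer inter-PAE above 15 were kept.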
# [2] = folding stability dG unfold from trypsin proteolysis; higher = more stable
# Protocol: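 Folding stability of de novo designed mini-proteins (<80 aa, no Cys; designed by TrROS, TrMRF, ProteinMPNN and the joint model) was measured by cDNA display proteolysis with trypsin and chymotrypsin. Each protease was used at 11 concentrations in a threefold dilution series plus a no-protease condition. K50 was inferred by Bayesian fitting of sequencing counts, and dG unfold was derived against a sequence-predicted unfolded-state K50 (Tsuboyama et al. method). Sequences shown include variable-length N-terminal GS-type padding (SAGGSAGG...) inside a display construct carrying a PA tag. Rows were kept only if the AF2 dimer inter-PAE was >15, to exclude likely homo-oligomers.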
# [3] = folding stability dG unfold from chymotrypsin proteolysis; higher = more stable
# Method in brief: as §1
Sequence,folding stability dG unfold [1] [kcal/mol],folding stability dG unfold [2] [kcal/mol],folding stability dG unfold [3] [kcal/mol]
DWKTRTVMFPVPPGDLEEAKDRAKELAKELPPGNKIEIEMPNPDGHYFMVTVTVDPNGEIDIDVSPGMRPIS [r1_350_TrROS],-0.547 ± 0.38,-0.418 ± 0.29,–
GMAEELAVEKAKEYLAPIPKPYEIDPEKKTVTLPGGGPLKTIPILVTVKDENGNVIKVIEVPIKVVSIPPGS [r1_318_JUSTAS],-0.159 ± 0.25,0.0543 ± 0.093,–
MAVTPEVLERMREEGVPEEVLAELGEVAVPSSDPRPEYIAELRALPGVSEVSPIPPTDPAALAALPERLLES [r1_248_JUSTAS],< -1,-0.884 ± 0.54,–
MHKVEHTIKHPGYEIKIEVTMYPNPNGNYYVPIKIEREDPKDNKPKKKPIMVPFPPGDPDDFVDWALEEILS [r1_171_TrROS],-0.207 ± 0.55,-0.189 ± 0.17,–
SAASTLKATLRPPDGSTLDVTVLDPGEGWLLQLGDGSERVSPEELEALLANDPSLVVEELTELPLEELSSAG [r14_336_JUSTAS],-0.654 ± 0.2,0.175 ± 0.05,–
SAAVSFTPDGRPRRLEPVPPVPPVIEIPVPLNIPESDPAKKEALRKEIKEKIMKELGLPESVPVKVILLSAG [r14_453_JUSTAS],-0.158 ± 0.55,0.199 ± 0.15,–
SAEIEELARKLAEELGAEVVEVKVEKLPNGTVKVTVVVRVNGELYKVTIEYDKETKEITIKIEKLPEEESAG [r14_784_TrROS_Hall],> 6,3.81 ± 0.48,–
SAGGGGMPAVKEEVTPVPGGVLTTTTLPDGSVKVTVSPPSGPAVASATKPVPSGSSVTVTVTLRPAALSAGG [r13_584_JUSTAS],-0.335 ± 0.087,0.367 ± 0.019,–
SAGGGKIKKPKPIVIRVPKNSIKVGDDVPVAVLAKALGIDPSAKAKVGEVKPPENGDYELVVVEVESSAGGS [r16_165_TrMRF],< -1,-0.508 ± 0.34,–
SAGGGMSTPVGVDSKLTEVREDTETGLITTTSVYRAGSEVTTVTESRPLGNPEDVTTLETTTTPASASAGGS [r16_89_JUSTAS],-0.204 ± 0.15,0.0405 ± 0.041,–
SAGGGNMKTITVPASAVTSITRSPTNPNTLTITVSGSGATTTTTLPITPETKITEEGDTVTVTIPGLSAGGS [r16_22_JUSTAS],-0.263 ± 0.096,0.312 ± 0.037,–
SAGGGVTREIPITIKTSEGEPEETITVPAKSREEVDPETGRPVSSVDPGSIEEIKAKLPSSVTSVVLSAGGS [r16_522_JUSTAS],< -1,-0.68 ± 0.077,–
SAGGIKLPPGQEIEGKIQYPFPDGMFMTSEQPIRIPPVPPPPPEVEVHLPDGERKPVRSPEEADDAASAGGS [r16_580_TrROS],-0.511 ± 0.26,0.0184 ± 0.049,–
SAGGKWYVMVKYEWRNPDNGKERNIQVPINREALQEGDLEEAVEEAKKFAREWGYPIKKVEINLMPPGSAGG [r13_954_TrROS],-0.232 ± 0.46,-0.106 ± 0.17,–
SAGGMLLYEKTVTSSPDDEALKLAKEIEEKLTPPDYITKIKVEVTPLPNGTYKVTIPIEILPPGYPKSAGGS [r16_128_JUSTAS],-0.426 ± 0.19,-0.0273 ± 0.076,–
SAGGMTFVKVKPAPVKFGEGDKEYWVVEIVKVLEVEDVGEKPVVKAEKETIIIPKDNPDALKEAGIDASAGG [r13_670_TrMRF],< -1,-1.02 ± 0.22,–
SAGGMTSYSVTVELPETGKKITITVPNNDPNVTPEKAAAEAEKRIKAEKEKIKKELEKKPKKPSSKLKSAGG [r13_126_JUSTAS],< -1,-0.907 ± 0.93,–
SAGGMVSPEVVKAALDDGNPLPLSEIVARIEAETGLPVEVETGDDSFRIVIRDPNRDVELSSETILLSAGGS [r8_105_JUSTAS],-0.399 ± 0.25,0.292 ± 0.057,–
SAGGNVEIERNPDGMITVEFPMKSPEQAIEEVKNFLQQQGWKIKDIPVERPPNGWVKITIPIKPPGASAGGS [r8_253_TrROS],0.0774 ± 0.3,0.34 ± 0.057,–
SAGGNWIMIELPLDDLKNAKPNQKVKIEWPDGKPFEVNAHRHDGRYPVLVRNPENPDKWEPIGEIEIESAGG [r13_745_TrROS],< -1,-0.0737 ± 0.11,–
SAGGPMKVQVAVWRRDPDNGEPKEVEIPMTWDNIRELLDDIPPDGRYMVKIHSPGQPQTIPLEDLKELSAGG [r13_254_TrROS],< -1,0.153 ± 0.42,–
SAGGSAGGSAGGKKKKKKVSINIRGGMSVEEVKGKAQELQSQGDPDVKEVKIHISPNMWSAGGSAGGSAGGS [r10_233_TrROS],–,0.33 ± 0.11,–
SAGGSAGGSAGGSMVAKELAEKIGAKVEGVEVKPIFDPEGKPVSEELKAKIEVLPPDYPLSAGGSAGGSAGG [r7_650_JUSTAS],–,-0.537 ± 0.19,–
SAGGSAGGSAGGTAEELKEKLPDVEFVPLEELENSVLILAKPPGGPVKLILVDGDKVVVASAGGSAGGSAGG [r7_25_TrMRF],–,0.322 ± 0.097,–

Sequence,folding stability dG unfold [1] [kcal/mol],folding stability dG unfold [2] [kcal/mol],folding stability dG unfold [3] [kcal/mol]
SAGSHEAWFPIPELLNDPGLEDAWIRVTVHPTPNGNIDIDIEPEPVPKPKITPEEMQEQMEENNKQMKSAGG [r19_313_TrROS],< -1,–,-0.435 ± 0.064
SAGSLPPDVTVPIPRRVRLSESDPALLEAARNGEPVYEELPGDVRVTVELRPLPPDELEVTERVYFPAGSAG [r5_223_JUSTAS],-0.000299 ± 0.27,–,0.444 ± 0.12
SAGSMTSFPLTLPGGEKISSISVTASPGTEYTTNATLSKDKSKTVTINFDIKPGGEKVVKNISVTTPEESAG [r14_705_JUSTAS],-0.0181 ± 0.1,–,0.391 ± 0.2
SAGSVTPLPNGEVVTLTTEKIGNEVYLVTKTTLPDGSVETETTPLKPTPPPPAVPVDVSNPYRAKLALASAG [r5_715_JUSTAS],-0.814 ± 0.33,–,-0.472 ± 0.35
SAGTKTIMGRPDDLPEAIEEALDKGPDLKKVKIYWGGREREIPLGDKIKITEPMPNPNGPPFMMIEIEDSAG [r5_130_TrROS],< -1,–,-0.486 ± 0.38
SAGTTTITVPASEASEEEVQALIDEIEAANPHLKVKEVKETVVPLPTPKPVRLRTIIINAELPLPPELLSAG [r5_835_JUSTAS],-0.132 ± 0.47,–,0.447 ± 0.18
SAGVEVTSTSVDYTLDSSSPSPLRSSASPVRSAPPVEERPVELVDPSGERRLVTLKEIDPEKGGRVLSGSAG [r5_735_JUSTAS],0.185 ± 0.24,–,0.229 ± 0.26
SAGVRKIPIESADDLRDEIDKSPGPVIIRNKGNKKYHRIDPDDLNNFAKNGAPIEIMPPDEMPPEMRKQSAG [r5_677_TrROS],-0.332 ± 0.17,–,-0.0447 ± 0.14
SAKKVKIKVVEIEKKEDYVLIKIKLEKNVKKGEKVKIIIKNKNGEKKEITIKNGYIYIKMKKKDIEIKISAG [r14_350_TrROS_Hall],3.93 ± 0.85,–,4.1 ± 0.29
SAMEELAKKLKELFPNLEIVSIEEEEVEVEGKKRKVLRIKIKNKNGELLEIEFETPEDKEIAELLKKLLSAG [r14_143_TrROS_Hall],> 6,–,5.53 ± 0.15
SAMELVLEESTELAEDPTNPGVLVPRTTTRELPVEPPPVVVIGSEENAKKLKKKGEVEVPPSGIILIPLSAG [r14_582_JUSTAS],0.137 ± 0.24,–,0.517 ± 0.21
SAMPITVTVKKTVTLPPPGPEHQKLLDPNGTVRTVTVEETETITVSPEEIEKVKEEAEAKGIEEVTVVDSAG [r14_509_JUSTAS],0.267 ± 0.15,–,0.732 ± 0.051
SDKDEKVIPSTSTSTDPETGTVTTTSTNTTITKGKIISPTTVTTTYPTATTTTTSTTIVDPNGNITTINSSA [r9_1015_JUSTAS],0.299 ± 0.14,–,0.97 ± 0.042
SDLQWEFPVKKPKDQAEQAVEKAKKEFPGFKEVDDIDVERNPDNYRIKMRIRDDKMPPEVADKLRKALQDSA [r9_195_TrROS],< -1,–,-0.454 ± 0.46
SGGATVEAFRRAPPGVRARILVEERGEELIVRLEIEGDDRRDEAEFPDPEEALARLLAAGVPVVVDELPASA [r9_1021_TrMRF],< -1,–,-0.708 ± 0.76
SKKRILIVTDEKDLSPEEAAKLLEELGIEEVKVVKSAEELKNLPPEVDEVIVVTPPPPVKVEFSPEELEKSA [r9_750_TrROS_Hall],-0.626 ± 0.43,–,-0.309 ± 0.069
SMKVLEGEEEAKKLAEEEGVPVIPVPADVSLEEIKKRIKETPGFPPDTVVATVIPKEPGRTTVIVLPLGKSA [r9_314_JUSTAS],0.0112 ± 0.1,–,0.474 ± 0.035
SNLKIKWPNGHEIPIQKNNENVRIKFPGNGQEHPIPKEALEDNTPEEILDHLRDHFRQHGMPPMPVEIEKSA [r9_1211_TrROS],0.192 ± 0.38,–,0.602 ± 0.083
SNVFPMEMTITVPVRDPKNGKKKTVDIPVPMYYRMEPEPYPDGKREMEPIPMEQFLEEIRRQAKELAKKGSA [r9_698_TrROS],–,0.764 ± 0.21,–
SPEFKIAEVRVEAFPDGTVKAEVRFEGGTETAVFDAPVDPETGVVPVRARIYNPETGEVSEFTATGRIGASA [r9_825_TrMRF],-0.325 ± 0.17,–,0.0658 ± 0.16
SPKWKPIAEIPFKNGDPDEFIDKLKDAFPPDPPVQITFNGPDGPPMRIWIDPDEGRIDDIYPGGQIRIIPSA [r9_853_TrROS],< -1,–,-0.986 ± 0.39
SSSMTIAKTEVETYPDGVIRTKETFPGSDTYREFDIPVDPSTGKMPVKSTLYDPKTGKSIETTSEIELLESA [r9_825_JUSTAS],-0.884 ± 0.64,–,-0.537 ± 0.33
SVITANDIKEMRKLGIEPIEHDPDNRYRFKFPRMNQPIEVEVKPVPPPPPIEIPDNMDSPEEADKWQDTFSA [r9_649_TrROS],0.259 ± 0.23,–,0.565 ± 0.16
SVPVTDETLYPDPSNALPISLVSQLGPDGSSVTTSITLPGRSMTQSVDPSTGRVTGNYPGTGLSSTVTSVPS [r1_125_JUSTAS],0.0698 ± 0.11,–,0.348 ± 0.051
